Source: publication PMC7202955 (Current biology : CB, 2020)

Target: the molecule itself
Assay: cross-linking

B1: β3 TMD-tail (construct of the cross-linking experiment, Figure S5) (domain or fragment, UniProt P05106 711-788, looked up)
chain: PECPKGPDILVVLLSVMGAILLIGLAALLIWKLLITIHDRKEFAKFEEERARAKWDTANNPLYKEATSTFTNITYRGT
  stoichiometry N: 2
